Test results as given in IntAct's records for PubMed 19037259.

Experiments:
[1] = biological target: vac14_yeast VAC14 (UniProt Q06708)
[2] = biological target: fig4_yeast FIG4 (UniProt P42837)
Chain of UniProt P42837 (P42837 whole entry): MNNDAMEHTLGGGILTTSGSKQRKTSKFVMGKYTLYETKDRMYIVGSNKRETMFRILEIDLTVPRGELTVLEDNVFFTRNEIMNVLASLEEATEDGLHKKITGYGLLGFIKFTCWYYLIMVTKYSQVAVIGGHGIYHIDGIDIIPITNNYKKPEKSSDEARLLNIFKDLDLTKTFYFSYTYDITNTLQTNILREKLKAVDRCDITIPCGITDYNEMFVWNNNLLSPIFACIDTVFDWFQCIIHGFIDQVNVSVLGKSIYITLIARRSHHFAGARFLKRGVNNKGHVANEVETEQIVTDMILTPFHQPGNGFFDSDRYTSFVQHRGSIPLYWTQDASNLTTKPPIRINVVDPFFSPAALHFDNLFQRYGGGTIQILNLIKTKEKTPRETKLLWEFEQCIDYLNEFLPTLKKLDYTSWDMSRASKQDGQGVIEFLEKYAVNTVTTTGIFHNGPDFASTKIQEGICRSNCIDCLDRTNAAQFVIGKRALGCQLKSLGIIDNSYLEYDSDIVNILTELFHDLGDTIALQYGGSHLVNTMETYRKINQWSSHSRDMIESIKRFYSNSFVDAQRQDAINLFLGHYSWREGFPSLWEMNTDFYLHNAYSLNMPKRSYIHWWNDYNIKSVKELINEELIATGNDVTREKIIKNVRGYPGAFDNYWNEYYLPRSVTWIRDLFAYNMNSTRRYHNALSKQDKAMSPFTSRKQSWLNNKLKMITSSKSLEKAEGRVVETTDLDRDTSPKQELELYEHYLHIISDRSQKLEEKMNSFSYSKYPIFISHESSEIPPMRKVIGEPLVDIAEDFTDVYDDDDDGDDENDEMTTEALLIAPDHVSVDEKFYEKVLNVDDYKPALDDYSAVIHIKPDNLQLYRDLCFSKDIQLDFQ

Chain of UniProt Q06708 (Q06708 whole entry): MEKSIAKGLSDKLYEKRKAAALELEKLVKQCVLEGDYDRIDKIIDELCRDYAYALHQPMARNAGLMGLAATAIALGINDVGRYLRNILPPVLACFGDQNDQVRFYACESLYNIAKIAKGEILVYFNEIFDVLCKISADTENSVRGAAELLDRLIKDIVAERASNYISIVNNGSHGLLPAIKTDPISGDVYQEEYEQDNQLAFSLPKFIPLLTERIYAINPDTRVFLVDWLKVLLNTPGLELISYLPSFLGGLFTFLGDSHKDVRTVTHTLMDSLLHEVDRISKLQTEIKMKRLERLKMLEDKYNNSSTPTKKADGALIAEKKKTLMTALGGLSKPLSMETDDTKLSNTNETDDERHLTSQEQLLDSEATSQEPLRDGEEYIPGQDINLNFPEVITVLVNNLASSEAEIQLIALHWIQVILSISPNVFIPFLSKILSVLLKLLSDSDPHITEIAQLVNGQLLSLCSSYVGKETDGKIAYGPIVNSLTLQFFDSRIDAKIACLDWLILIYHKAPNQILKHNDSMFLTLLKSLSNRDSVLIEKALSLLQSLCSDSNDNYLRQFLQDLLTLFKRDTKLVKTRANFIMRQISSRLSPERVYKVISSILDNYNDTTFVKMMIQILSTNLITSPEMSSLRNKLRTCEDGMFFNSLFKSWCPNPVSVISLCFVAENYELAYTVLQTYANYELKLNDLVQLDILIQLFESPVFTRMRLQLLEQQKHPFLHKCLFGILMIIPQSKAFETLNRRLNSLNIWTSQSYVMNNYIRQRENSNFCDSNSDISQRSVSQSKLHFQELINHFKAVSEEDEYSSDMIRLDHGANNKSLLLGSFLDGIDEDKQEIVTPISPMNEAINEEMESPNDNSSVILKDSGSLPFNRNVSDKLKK

1-phosphatidylinositol 3-phosphate 5-kinase FAB1 (Saccharomyces cerevisiae), P34756 G864E
effect of a mutation on the interaction [1]: disrupting interaction | effect of a mutation on the interaction [2]: disrupting interaction
